± gives the uncertainty stated by the source.

The nature of the series: self-splicing fitness, log relative to wild type (ln ratio); higher = more splicing; Tetrahymena group I intron in knt gene, E. coli kanamycin selection, DiMSum; sequences stand for … in CUCUCU…GGAGGGAAAAGUUAUCAGGCAUGCACCUGGUAGCUAGUCUUUAAACCAAUAGAUUGCAUCGGUUUAAAAGGCAAGACCGUCAAAUUGCGGGAAAGGGGUCAACAGCCGUUCAGUACCAAGUCUCAGGGGAAACUUUGAGAUGGCCUUGCAAAGGGUAUGGUAAUAAGCUGACGGACAUGGUCCUAACCACGCAGCCAAGUCCUAAGUCAACAGAUCUUCUGUUGAUAUGGAUGCAGUUCACAGACUAAAUGUCGGUCGGGGAAGAUGUAUUCUUCUCAUAAGAUAUAGUCGGACCUCUCCUUAAUGGGAGCUAGCGGAUGAAGUGAUGCAACACUGGAGCCGCUGGGAACUAAUUUGUAUGCGAAAGUAUAUUGAUUAGUUUUGGAGUACUCGUGGUCG
The gist of the method: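 The eight P1ex-region nucleotides of an intron in the knt kanamycin-resistance gene on pET-22b(+) were all randomised and the library put into E. coli BL21(DE3). Six replicate transformations were grown overnight at 37°C or 30°C on LB agar with or without 25 μg/mL kanamycin, together with 100 μg/mL carbenicillin, 50 μM IPTG and 0.2% rhamnose. Colonies were pooled and amplicon-sequenced on an Illumina HiSeq 2500. Fitness from DiMSum is the error-weighted combination of wild-type-normalised replicate fold changes, kanamycin over none.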

On to CUCAAGCAAUAUUACGAGAG, for which the “self-splicing fitness (ln)” value runs as follows: (30 °C) -3.27 ± 0.22; (37 °C) -1.81 ± 0.23.
The matching figures for CAAGAGCAAUAUUACGUGAG: -1.44 ± 0.087 and -0.683 ± 0.11.
Taken in the same sequence, the figures for CAACAGCAAUAUUACGCUAA were -2.36 ± 0.098 and -2.11 ± 0.12.
Taken in the same sequence, the figures for CAACAGCAAUAUUACGGUAC were -4.95 ± 0.28 and -3.34 ± 0.22.
On to GCGAAGCAAUAUUACGUGUA, for which the “self-splicing fitness (ln)” value (30 °C) was -1.88 ± 0.093 and the “self-splicing fitness (ln)” value (37 °C) is -1.09 ± 0.072.
Taken in the same sequence, the figures for UCACAGCAAUAUUACGGAAU were -4.32 ± 0.25 and -2.97 ± 0.22.
On to UCAGAGCAAUAUUACGGGCU, for which the “self-splicing fitness (ln)” value (30 °C) is -4.78 ± 0.36 and the “self-splicing fitness (ln)” value (37 °C) was -2.46 ± 0.25.
Taken in the same sequence, the figures for UAACAGCAAUAUUACGGUUA were -1.59 ± 0.1 and -0.652 ± 0.096.
Taken in the same sequence, the figures for UGGUAGCAAUAUUACGCUCA were -0.626 ± 0.14 and 0.26 ± 0.18.
The matching figures for CGUGAGCAAUAUUACGAUCC: -2.65 ± 0.25 and -0.358 ± 0.25.
In the case of GACUAGCAAUAUUACGGAAG, the “self-splicing fitness (ln)” value is, setting by setting: (30 °C) -3.56 ± 0.19; (37 °C) -2.21 ± 0.19.
Taken in the same sequence, the figures for UAAUAGCAAUAUUACGCGCG were -0.452 ± 0.11 and -0.333 ± 0.14.
The matching figures for GUGUAGCAAUAUUACGGCCU: -0.169 ± 0.073 and 0.685 ± 0.098.
Taken in the same sequence, the figures for UUGAAGCAAUAUUACGUGAG were -0.592 ± 0.067 and -0.805 ± 0.093.
Turning to AUCUAGCAAUAUUACGCAAA, the “self-splicing fitness (ln)” value by setting is: (30 °C) -2.59 ± 0.29; (37 °C) -3.24 ± 0.39.
Consider GGUAAGCAAUAUUACGGUUU, for which the “self-splicing fitness (ln)” value is, setting by setting: (30 °C) -0.707 ± 0.056; (37 °C) -0.0713 ± 0.083.
Taken in the same sequence, the figures for UUCUAGCAAUAUUACGACAC were -2.05 ± 0.27 and -1.71 ± 0.28.
Taken in the same sequence, the figures for GCUGAGCAAUAUUACGUGAA were -2.63 ± 0.22 and -1.35 ± 0.23.
In the case of UCUGAGCAAUAUUACGUCCU, the “self-splicing fitness (ln)” value (30 °C) was -1.81 ± 0.39.
For the sequence AACUAGCAAUAUUACGACUG, the “self-splicing fitness (ln)” value is -0.606 ± 0.1 (30 °C) and -0.989 ± 0.13 (37 °C).
The matching figures for UCCGAGCAAUAUUACGUCCA: -2.89 ± 0.38 and -2.37 ± 0.34.
The matching figures for GUCAAGCAAUAUUACGCCCU: -0.585 ± 0.16 and 0.51 ± 0.15.
For the sequence UUCCAGCAAUAUUACGCAUG, the “self-splicing fitness (ln)” value was -3.41 ± 0.25 (30 °C) and -1.7 ± 0.16 (37 °C).
Taken in the same sequence, the figures for UAUCAGCAAUAUUACGCAAA were -0.36 ± 0.12 and -0.755 ± 0.11.
The matching figures for GCGCAGCAAUAUUACGGAGC: -2.35 ± 0.26 and -2.38 ± 0.49.
Taken in the same sequence, the figures for UUCCAGCAAUAUUACGAAAG were -2.6 ± 0.27 and -2.33 ± 0.27.
Take GACCAGCAAUAUUACGUGCG: the “self-splicing fitness (ln)” value is -0.787 ± 0.082 (30 °C) and -0.644 ± 0.097 (37 °C).
With UGAGAGCAAUAUUACGCAGU, the “self-splicing fitness (ln)” value is -4.62 ± 0.34 (30 °C) and -2.41 ± 0.18 (37 °C).
The matching figures for AAAAAGCAAUAUUACGGGGU: -3.62 ± 0.16 and -2.32 ± 0.17.
Taken in the same sequence, the figures for CAAUAGCAAUAUUACGGCCU were -2.69 ± 0.21 and -3.6 ± 0.39.
The matching figures for CUGAAGCAAUAUUACGCGAC: -1.46 ± 0.086 and -1.14 ± 0.1.
Regarding CUUUAGCAAUAUUACGGUAG, the “self-splicing fitness (ln)” value reads like this: (30 °C) -1.81 ± 0.085; (37 °C) -0.685 ± 0.11.
The matching figures for AGUAAGCAAUAUUACGAUGA: -2.3 ± 0.16 and -1.03 ± 0.13.
Taken in the same sequence, the figures for AGCUAGCAAUAUUACGCUGG were -3.58 ± 0.2 and -2.31 ± 0.3.
Taken in the same sequence, the figures for AUGUAGCAAUAUUACGGGGA were -2.26 ± 0.21 and -2.48 ± 0.21.
Turning to CCUAAGCAAUAUUACGCUGA, the “self-splicing fitness (ln)” value (30 °C) was -2.63 ± 0.21 and the “self-splicing fitness (ln)” value (37 °C) was -1.96 ± 0.32.
The matching figures for AGGCAGCAAUAUUACGACUU: -0.0645 ± 0.048 and 0.187 ± 0.065.
For the sequence CAGGAGCAAUAUUACGUGAA, the “self-splicing fitness (ln)” value is, setting by setting: (30 °C) -3.52 ± 0.38; (37 °C) -3.2 ± 0.43.
Taken in the same sequence, the figures for GAUUAGCAAUAUUACGUAGA were -1.92 ± 0.15 and -0.933 ± 0.14.
Taken in the same sequence, the figures for GGAUAGCAAUAUUACGAUUC were -2.52 ± 0.15 and -0.731 ± 0.16.
As to CCUGAGCAAUAUUACGACGU, the “self-splicing fitness (ln)” value by setting is: (30 °C) -2.28 ± 0.14; (37 °C) -0.0399 ± 0.14.
For the sequence AGCUAGCAAUAUUACGUGAA, the “self-splicing fitness (ln)” value (30 °C) was -1.58 ± 0.13 and the “self-splicing fitness (ln)” value (37 °C) was -1.05 ± 0.15.
The matching figures for CUCCAGCAAUAUUACGAUAC: -3.57 ± 0.31 and -1.94 ± 0.32.
Taken in the same sequence, the figures for UAUUAGCAAUAUUACGAAGA were -1.81 ± 0.17 and -1.75 ± 0.26.
Taken in the same sequence, the figures for UAUGAGCAAUAUUACGAGUG were -1.52 ± 0.095 and -0.43 ± 0.11.
With GGGAAGCAAUAUUACGAACG, the “self-splicing fitness (ln)” value reads like this: (30 °C) -0.494 ± 0.086; (37 °C) 0.55 ± 0.16.
The matching figures for GUCCAGCAAUAUUACGUGCU: -4.08 ± 0.46 and 0.0205 ± 0.18.
Turning to CGCGAGCAAUAUUACGCCUU, under “30 °C”, the “self-splicing fitness (ln)” value is -2.45 ± 0.43.
With CCGUAGCAAUAUUACGGAAU, the “self-splicing fitness (ln)” value is, setting by setting: (30 °C) -3.73 ± 0.3; (37 °C) -1.92 ± 0.32.
Taken in the same sequence, the figures for UUAAAGCAAUAUUACGAAUU were -1.97 ± 0.11 and -2.46 ± 0.21.
The matching figures for GGGUAGCAAUAUUACGUUUU: -1.31 ± 0.063 and -0.826 ± 0.1.
The matching figures for AUACAGCAAUAUUACGCCCC: -1.47 ± 0.25 and 0.0702 ± 0.23.
For the sequence AGGAAGCAAUAUUACGCUUG, the “self-splicing fitness (ln)” value by setting is: (30 °C) -2.64 ± 0.14; (37 °C) -0.302 ± 0.11.
The matching figures for GUCGAGCAAUAUUACGGUCU: -3.35 ± 0.28 and -1.12 ± 0.18.
The matching figures for UUUUAGCAAUAUUACGGUGC: -3.63 ± 0.24 and -2.98 ± 0.38.
The matching figures for UAUGAGCAAUAUUACGCUGA: -2.75 ± 0.33 and -1.13 ± 0.3.
With GGUUAGCAAUAUUACGGAUU, the “self-splicing fitness (ln)” value was 0.0654 ± 0.078 (30 °C) and -0.0766 ± 0.092 (37 °C).
In the case of UCACAGCAAUAUUACGAGGG, the “self-splicing fitness (ln)” value is, setting by setting: (30 °C) -2.01 ± 0.088; (37 °C) -1.28 ± 0.12.
The matching figures for AUUAAGCAAUAUUACGAUGA: -0.766 ± 0.11 and -0.613 ± 0.12.
Taken in the same sequence, the figures for UUAUAGCAAUAUUACGGACC were -3.38 ± 0.47 and -1.41 ± 0.21.
On to UUCAAGCAAUAUUACGGUCG, for which the “self-splicing fitness (ln)” value is -0.917 ± 0.1 (30 °C) and -0.62 ± 0.13 (37 °C).
The matching figures for GUAGAGCAAUAUUACGUAGG: -3.28 ± 0.17 and -1.96 ± 0.17.
The matching figures for UUACAGCAAUAUUACGUCCG: -1.53 ± 0.089 and -0.482 ± 0.14.
The matching figures for AGACAGCAAUAUUACGUAUC: -3.63 ± 0.16 and -1.52 ± 0.15.
For the sequence CCGGAGCAAUAUUACGGUGA, the “self-splicing fitness (ln)” value runs as follows: (30 °C) -3.8 ± 0.31; (37 °C) -2.29 ± 0.23.
Taken in the same sequence, the figures for GGAAAGCAAUAUUACGAUUU were -0.238 ± 0.081 and 0.189 ± 0.1.
Taken in the same sequence, the figures for AUCCAGCAAUAUUACGAACC were -0.394 ± 0.1 and -0.346 ± 0.15.
Turning to AAGUAGCAAUAUUACGGUGC, the “self-splicing fitness (ln)” value (37 °C) is -2.76 ± 0.32.
Take UAUCAGCAAUAUUACGGUAU: the “self-splicing fitness (ln)” value is -3.73 ± 0.21 (30 °C) and -2.01 ± 0.18 (37 °C).
Taken in the same sequence, the figures for AAGGAGCAAUAUUACGUAUA were -2.76 ± 0.21 and -2.85 ± 0.29.
Taken in the same sequence, the figures for UAAUAGCAAUAUUACGGCAC were -2.86 ± 0.22 and -1.48 ± 0.19.
Taken in the same sequence, the figures for CAUCAGCAAUAUUACGUUUC were -2.76 ± 0.17 and -1.82 ± 0.16.
On to GGAAAGCAAUAUUACGUCAA, for which the “self-splicing fitness (ln)” value by setting is: (30 °C) -1.7 ± 0.19; (37 °C) -0.985 ± 0.18.
The matching figures for AUAAAGCAAUAUUACGUGUC: -3.44 ± 0.14 and -3.4 ± 0.12.
The matching figures for CGCAAGCAAUAUUACGCAUG: -2.77 ± 0.11 and -2.19 ± 0.12.

Values taken from the supplement of paper PMC7877785.
